Reference: US20240400693A1 (Chugai, published 2024)

What was measured:
[1] = target: HLA-DQ2.5 on IHW09023 cells loaded with gamma 3 gliadin peptide (human; wheat); assay: cell-based or functional assay
[2] = target: HLA-DQ2.5 on IHW09023 cells loaded with BC hordein peptide (human; barley); assay: cell-based or functional assay
[3] = target: HLA-DQ2.5 on IHW09023 cells loaded with gamma 1 gliadin peptide (human; wheat); assay: cell-based or functional assay
[4] = target: HLA-DQ2.5 on IHW09023 cells loaded with 33mer gliadin peptide (human; wheat); assay: cell-based or functional assay
[5] = target: HLA-DQ2.5 on IHW09023 cells loaded with gamma 4d gliadin peptide (human; wheat); assay: cell-based or functional assay
[6] = target: HLA-DQ2.5 on IHW09023 cells loaded with gamma 2 gliadin peptide (human; wheat); assay: cell-based or functional assay
[7] = target: HLA-DQ2.5 on IHW09023 cells loaded with omega1/2 gliadin peptide (human; wheat); assay: cell-based or functional assay
[8] = target: HLA-DQ2.5 on IHW09023 cells loaded with gamma 4a gliadin peptide (human; wheat); assay: cell-based or functional assay
HLA-DQ5.1 on Ba/F3 cells = target: T1, HLA-DQ5.1 on Ba/F3 cells (human, limits assumed); assay: FACS, Ba/F3 cells; raw MFI
T1 construct: whole, on cells; also called Ba/F3-HLA-DQ5.1
T1 MHC II alpha: not shown
T1 MHC II beta: not shown

HLA-DQ6.3 on Ba/F3 cells = target: T2, HLA-DQ6.3 on Ba/F3 cells (human, UniProt P01920 33-230, limits assumed); assay: FACS, Ba/F3 cells; raw MFI
T2 construct: whole, on cells; also called Ba/F3-HLA-DQ6.3
T2 MHC II alpha: not shown
T2 MHC II beta: not shown

HLA-DP on Ba/F3 cells = target: T3, HLA-DP on Ba/F3 cells (human, UniProt P20036 29-222; P04440 30-225, limits assumed); assay: FACS, Ba/F3 cells; raw MFI
T3 construct: whole, on cells; also called Ba/F3-HLA-DP
T3 sequence (P20036 29-222 limits assumed, chain 1 of 4, other chains not shown): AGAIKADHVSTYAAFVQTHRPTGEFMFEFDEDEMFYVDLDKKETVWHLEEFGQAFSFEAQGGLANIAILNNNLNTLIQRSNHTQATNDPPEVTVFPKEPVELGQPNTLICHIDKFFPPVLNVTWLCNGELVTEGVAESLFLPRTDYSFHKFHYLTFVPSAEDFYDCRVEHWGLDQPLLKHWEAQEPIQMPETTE
T3 sequence (P04440 30-225 limits assumed, chain 2 of 4, other chains not shown): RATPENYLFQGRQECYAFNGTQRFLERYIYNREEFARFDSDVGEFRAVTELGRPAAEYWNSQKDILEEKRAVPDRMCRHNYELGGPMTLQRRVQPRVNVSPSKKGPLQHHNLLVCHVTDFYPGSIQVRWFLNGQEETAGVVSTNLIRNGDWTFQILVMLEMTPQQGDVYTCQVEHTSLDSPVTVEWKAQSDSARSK

Row | Binder | IC50 (ng/mL), γ3 gliadin TCR, 100 µM γ3 gliadin [1] | IC50 (ng/mL), BC hordein TCR, 250 nM BC hordein [2] | IC50 (ng/mL), γ1 gliadin TCR, 250 nM γ1 gliadin [3] | IC50 (ng/mL), α1a gliadin TCR, 250 nM 33mer gliadin [4] | IC50 (ng/mL), α1b gliadin TCR, 250 nM 33mer gliadin [4] | IC50 (ng/mL), α2 gliadin TCR, 250 nM 33mer gliadin [4] | IC50 (ng/mL), γ4d gliadin TCR, 100 µM γ4d gliadin [5] | IC50 (ng/mL), γ2 gliadin TCR, 250 nM γ2 gliadin [6] | IC50 (ng/mL), ω1 gliadin TCR, 25 µM ω1/2 gliadin [7] | IC50 (ng/mL), ω2 gliadin TCR, 250 nM ω1/2 gliadin [7] | IC50 (ng/mL), γ4a gliadin TCR, 25 µM γ4a gliadin [8] | binding result (HLA-DQ5.1 on Ba/F3 cells) | binding result (HLA-DQ6.3 on Ba/F3 cells) | binding result (HLA-DP on Ba/F3 cells)
1 | DQN0344H0976/L0591//DQN0385H1527/L0605-F6 (bispecific antibody) heavy 1: QVQLVESGGGVVQPGGSLRLSCAASGFTFSSAYWMVWVRQAPGQGLEWMGAVYGGSDTTYYAKWTEGRFTISRDTSKNTLYLQMNSLRAEDTAVYYCAREPLNYYYYGELNLWGQGTLVTVSSASTKGPSVFPLAPSSKSTSGGTAALGCLVKDYFPEPVTVSWNSGALTSGVHTFPAVLKSSGLYSLSSVVTVPSSSLGTQTYICNVNHKPSNTKVDKRVEPKSCDKTHTCPPCPAPELRRGPSVFLFPPKPKDTLMISRTPEVTCVVVDVSHEDPEVKFNWYVDGVEVHNAKTKPREEQYNSTYRVVSVLTVLHQDWLNGKEYKCKVSNKALPAPIEKTISKAKGQPREPQVYTLPPSREEMTKNQVSLTCLVKGFYPSDIAVEWESNGQPENNYKTTPPYLDSDGSFFLYSKLTVDKSRWQEGNVFSCSVLHEALHAHYTREELSLSP light 1: DIQMTQSPSSLSASVGDRVTITCQATEEIYSGLAWYQQKPGKAPKLLIYYVSTLYEGIPARFSGSGSGTDFTLTISSLEPEDFAVYYCQTYEDVSAVTFGQGTKVEIKRTVAAPSVFIFPPSDEQLKSGTAEVVCLLNNFYPREAKVQWKVDNALQSGNSEESVTEQDSKDSTYSLSSTLTLSKADYEKHKVYACEVTHQGLSSPVTKSFNRGEC heavy 2: QVQLVESGGGVVQPGRSLRLSCAASGFTFASWYFMSWVRQAPGKGLEWVASIDTGSGSIDYAEWVEGRFTISRDNSKNTLYLQMNSLRAEDTAVYYCARDIGIDYNFWGPGTLVTVSSASTKGPSVFPLAPSSKSTSGGTAALGCLVEDYFPEPVTVSWNSGALTSGVHTFPAVLESSGLYSLSSVVTVPSSSLGTKTYICNVNHKPSNTKVDKRVEPKSCDKTHTCPPCPAPELRRGPSVFLFPPKPKDTLMISRTPEVTCVVVDVSHEDPEVKFNWYVDGVEVHNAKTKPREEQYNSTYRVVSVLTVLHQDWLNGKEYKCKVSNKALPAPIEKTISKAKGQPREPQVYTLPPSRKEMTKNQVSLTCLVKGFYPSDIAVEWESNGQPENNYKTTPPYLDSDGSFFLYSKLTVDKSRWQQGNVFSCSVLHEALHAHYTRKELSLSP light 2: DIQMTQSPSSLSASVGDRVTITCQTTQSISSYLNWYQQKPGQPPKLLIYYASTKAEGIPARFSGSGSGTDFTLTISSLEPEDFAVYYCHYGISKVSFGQGTKVEIKRTVAAPSVFIFPPSDEQLKSGTAKVVCLLNNFYPREAKVQWKVDNALQSGNSKESVTEQDSKDSTYSLSSTLTLSKADYEKHKVYACEVTHQGLSSPVTKSFNRGEC | 2.09 ng/mL | 6.54 ng/mL | 0.59 ng/mL | 0.7 ng/mL | 1.84 ng/mL | 0.51 ng/mL | 11.4 ng/mL | 637 ng/mL | 3.25 ng/mL | 0.3 ng/mL | 1210 ng/mL |  |  | 
2 | DQN0344H1013/L0620//DQN0385H1353/L0681-F6 (bispecific antibody) heavy 1: QVQLVESGGGVVQPGRSLRLSCAASGFTFSSAYWMVWVRQAPGQGLEWMGAVYGGSDTTYYAKWTEGRFTISRDTSKNTLYLQMNSLRAEDTAVYYCAREPLNYYYYGELNVWGQGTLVTVSSASTKGPSVFPLAPSSKSTSGGTAALGCLVKDYFPEPVTVSWNSGALTSGVHTFPAVLKSSGLYSLSSVVTVPSSSLGTQTYICNVNHKPSNTKVDKRVEPKSCDKTHTCPPCPAPELRRGPSVFLFPPKPKDTLMISRTPEVTCVVVDVSHEDPEVKFNWYVDGVEVHNAKTKPREEQYNSTYRVVSVLTVLHQDWLNGKEYKCKVSNKALPAPIEKTISKAKGQPREPQVYTLPPSREEMTKNQVSLTCLVKGFYPSDIAVEWESNGQPENNYKTTPPYLDSDGSFFLYSKLTVDKSRWQEGNVFSCSVLHEALHAHYTREELSLSP light 1: DIQMTQSPSSLSASVGDRVTITCQATENIYSGLAWYQQKPGKAPKLLIYYVSTLAYGIPARFSGSGSGTDFTLTISSLEPEDFAVYYCQTYEDVSAVTFGQGTKVEIKRTVAAPSVFIFPPSDEQLKSGTAEVVCLLNNFYPREAKVQWKVDNALQSGNSEESVTEQDSKDSTYSLSSTLTLSKADYEKHKVYACEVTHQGLSSPVTKSFNRGEC heavy 2: QVQLVESGGGVVQPGRSLRLSCAASGFTFAEWYFMSWVRQAPGKGLEWVASIDTGSGSIDYAEWVEGRFTISRDNSKNTLYLQMNSLRAEDTAVYYCARDIGIDYNFWGPGTLVTVSSASTKGPSVFPLAPSSKSTSGGTAALGCLVEDYFPEPVTVSWNSGALTSGVHTFPAVLESSGLYSLSSVVTVPSSSLGTKTYICNVNHKPSNTKVDKRVEPKSCDKTHTCPPCPAPELRRGPSVFLFPPKPKDTLMISRTPEVTCVVVDVSHEDPEVKFNWYVDGVEVHNAKTKPREEQYNSTYRVVSVLTVLHQDWLNGKEYKCKVSNKALPAPIEKTISKAKGQPREPQVYTLPPSRKEMTKNQVSLTCLVKGFYPSDIAVEWESNGQPENNYKTTPPYLDSDGSFFLYSKLTVDKSRWQQGNVFSCSVLHEALHAHYTRKELSLSP light 2: DIQMTQSPSSLSASVGDRVTITCQTTQSISSYLNWYQQKPGQPPKLLIYYASTKAEGIPARFSGSGLGTDFTLTISSLEPEDFAVYYCHYGISKVSFGQGTKVEIKRTVAAPSVFIFPPSDEQLKSGTAKVVCLLNNFYPREAKVQWKVDNALQSGNSKESVTEQDSKDSTYSLSSTLTLSKADYEKHKVYACEVTHQGLSSPVTKSFNRGEC | 2.29 ng/mL | 8.78 ng/mL | 0.56 ng/mL | 0.29 ng/mL | 1.13 ng/mL | 0.34 ng/mL | 2.06 ng/mL | 100 ng/mL | 1.17 ng/mL | 0.17 ng/mL | 1250 ng/mL | no binding (tested: 0.05 micro g/mL) | no binding (tested: 0.05 micro g/mL) | no binding (tested: 0.05 micro g/mL)
3 | DQN0344H1013/L0620//DQN0385H1270/L0681-F6 (bispecific antibody) heavy 1: QVQLVESGGGVVQPGRSLRLSCAASGFTFSSAYWMVWVRQAPGQGLEWMGAVYGGSDTTYYAKWTEGRFTISRDTSKNTLYLQMNSLRAEDTAVYYCAREPLNYYYYGELNVWGQGTLVTVSSASTKGPSVFPLAPSSKSTSGGTAALGCLVKDYFPEPVTVSWNSGALTSGVHTFPAVLKSSGLYSLSSVVTVPSSSLGTQTYICNVNHKPSNTKVDKRVEPKSCDKTHTCPPCPAPELRRGPSVFLFPPKPKDTLMISRTPEVTCVVVDVSHEDPEVKFNWYVDGVEVHNAKTKPREEQYNSTYRVVSVLTVLHQDWLNGKEYKCKVSNKALPAPIEKTISKAKGQPREPQVYTLPPSREEMTKNQVSLTCLVKGFYPSDIAVEWESNGQPENNYKTTPPYLDSDGSFFLYSKLTVDKSRWQEGNVFSCSVLHEALHAHYTREELSLSP light 1: DIQMTQSPSSLSASVGDRVTITCQATENIYSGLAWYQQKPGKAPKLLIYYVSTLAYGIPARFSGSGSGTDFTLTISSLEPEDFAVYYCQTYEDVSAVTFGQGTKVEIKRTVAAPSVFIFPPSDEQLKSGTAEVVCLLNNFYPREAKVQWKVDNALQSGNSEESVTEQDSKDSTYSLSSTLTLSKADYEKHKVYACEVTHQGLSSPVTKSFNRGEC heavy 2: QVQLVESGGGVVQPGRSLRLSCAASGFTFSEWYFMSWVRQAPGKGLEWVASIDTGSGSIDYAEWVEGRFTISRDNSKNTLYLQMNSLRAEDTAVYYCARDIGIDYNFWGPGTLVTVSSASTKGPSVFPLAPSSKSTSGGTAALGCLVEDYFPEPVTVSWNSGALTSGVHTFPAVLESSGLYSLSSVVTVPSSSLGTKTYICNVNHKPSNTKVDKRVEPKSCDKTHTCPPCPAPELRRGPSVFLFPPKPKDTLMISRTPEVTCVVVDVSHEDPEVKFNWYVDGVEVHNAKTKPREEQYNSTYRVVSVLTVLHQDWLNGKEYKCKVSNKALPAPIEKTISKAKGQPREPQVYTLPPSRKEMTKNQVSLTCLVKGFYPSDIAVEWESNGQPENNYKTTPPYLDSDGSFFLYSKLTVDKSRWQQGNVFSCSVLHEALHAHYTRKELSLSP light 2: DIQMTQSPSSLSASVGDRVTITCQTTQSISSYLNWYQQKPGQPPKLLIYYASTKAEGIPARFSGSGLGTDFTLTISSLEPEDFAVYYCHYGISKVSFGQGTKVEIKRTVAAPSVFIFPPSDEQLKSGTAKVVCLLNNFYPREAKVQWKVDNALQSGNSKESVTEQDSKDSTYSLSSTLTLSKADYEKHKVYACEVTHQGLSSPVTKSFNRGEC | 2.63 ng/mL | 7.54 ng/mL | 1.11 ng/mL | 0.38 ng/mL | 1.78 ng/mL | 0.33 ng/mL | 13.1 ng/mL | 322 ng/mL | 2.51 ng/mL | 0.2 ng/mL | 1160 ng/mL |  |  | 
